T1: 鼠IL-13 (小鼠 (mouse), UniProt P20109 19-131, limits assumed)
T1 construct: Bought protein; also called 小鼠IL-13; 鼠IL-13变体
T1 sequence (looked up): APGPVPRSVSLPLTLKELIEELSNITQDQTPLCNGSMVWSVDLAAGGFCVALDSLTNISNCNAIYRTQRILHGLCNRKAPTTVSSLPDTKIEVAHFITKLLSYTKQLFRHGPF


Columns and labels:
[1] = target: 免疫原A (his标签重组人IL-13蛋白) (human) (UniProt P35225); experiment: SPR (Biacore), steps as Example 9
[2] = target: 免疫原A (his标签重组人IL-13蛋白) (human) (UniProt P35225); experiment: SPR (Biacore), sentence on the group of 表27
[3] = target: 免疫原A (his标签重组人IL-13蛋白) (human) (UniProt P35225); experiment: SPR (Biacore), antibody captured on anti-human Fc CM5 chip, immunogen A as analyte, 1:1 global fit
[4] = target: T1, 鼠IL-13; experiment: ELISA, IL-13 at 0.5 μg/mL on streptavidin plate, serially diluted antibody, HRP second antibody

| Binder | Kd [1] [nM] | koff [1] [s⁻¹] | kon [1] [M⁻¹ s⁻¹] | Kd [2] [nM] | Kd [3] [nM] | koff [3] [s⁻¹] | kon [3] [M⁻¹ s⁻¹] | binding result [4] |
| --- | --- | --- | --- | --- | --- | --- | --- | --- |
| c29D9H8 (antibody, V domains shown) VH: QVQLQQSGAELVRPGASVTLSCKASGYTFTDYEMHWVKQTPVHGLEWIGGIDPETGGTASNQKFKGKAILTADKSSSTAYMELRSLTSEDSAVYYCTSGDYFGGGPFAYWGQGTLVTVSA VL: DIKMTQSPSSMYASLGERVTITCKASQDINSYLSWFQQKPGKSPKTLIYRANRLVDGVPSRFSGSGSGQDYSLTISSLDYEDMGIYYCLQYDEFPYTFGGGTKLEIK | 0.0247 | 0.000962 | 3.9e+07 | < 90 | 0.0324 | 0.000813 | 2.51e+07 | – |
| 35E2C3 (antibody, V domains shown, also called 先导抗体; IL-13先导抗体) VH: EVQLQESGPGLAKPSQTLSLTCSVTGYSITSDYWNWIRKFPGNKLEYMGYISYNGNTYYNPSLKSQISITRDTSKNQLYLQLKSATTEDTATYYCARLAKWTWYFDIWGTGTTVTVSS VL: DIQMNQSPSSLSASLGDTITITCHASQNINVWLSWYQQKPGSLPKLLIYKASDLHTGVPSRFSGSGSGTGFTLTISSLQPEDIATYYCQQGQSYPYTFGGGTKLEIK | 0.86 | 0.000248 | 289000 | < 90 | 0.863 | 0.00026 | 300000 | no binding |

From CN109776677A (SHANGHAI PHARMEXPLORER COMPANY LTD, dated 2019)
